T1: mCD40-his(小鼠CD40) (小鼠 (mouse), UniProt P27512 24-193, limits assumed)
T1 construct: Bought His-tagged protein; also called 小鼠的CD40
T1 sequence (looked up): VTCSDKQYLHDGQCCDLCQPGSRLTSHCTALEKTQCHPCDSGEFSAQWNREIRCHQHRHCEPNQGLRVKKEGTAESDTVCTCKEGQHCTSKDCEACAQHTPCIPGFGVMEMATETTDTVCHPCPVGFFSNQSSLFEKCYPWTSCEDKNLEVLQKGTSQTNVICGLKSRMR

B1: 抗体25 (antibody, human IgG1, kappa, V domains shown)
VH: EVQLVESGGGLVQPGGSLRLSCAASGFSFGTYAMSWVRQAPGKGLEWVSGIDSGTGNPFYADSVKGRFTISRDNSKNTLYLQMNSLRAEDTAVYYCARALYYTGFYRPLDYWGQGTLVTVSS
VL: DIQMTQSPSSLSASVGDRVTITCRASQGISSYLAWYQQKPGKAPKLLIYAASSLQSGVPSRFSGSGSGTDFTLTISSLQPEDFATYYCQQHYTTPPTFGQGTKVEIKR
notes: also called antibody 25; 抗CD40抗体
B2: APX005 (antibody, V domains shown)
VH: QVQLVESGGGVVQPGRSLRLSCAASGFSFSSTYVCWVRQAPGKGLEWIACIYTGDGTNYSASWAKGRFTISKDSSKNTVYLQMNSLRAEDTAVYFCARPDITYGFAINFWGPGTLVTVSS
VL: DIQMTQSPSSLSASVGDRVTIKCQASQSISSRLAWYQQKPGKPPKLLIYRASTLASGVPSRFSGSGSGTDFTLTISSLQPEDVATYYCQCTGYGISWPIGGGTKVEIK

Experiments:
人CD40 [1] = target: T2, 人CD40 (human, UniProt P25942 21-277); assay: flow cytometry (MFI) on HT1080-hCD40 cells
T2 construct: whole, on cells; also called hCD40; CD40 on Daudi cells

人CD40 [2] = target: T2, 人CD40; assay: flow cytometry (MFI) on Daudi cells expressing CD40
mCD40-his(小鼠CD40) = target: T1, mCD40-his(小鼠CD40); assay: ELISA, 2 μg/ml mCD40-his coated, HRP second antibody

T2 sequence (P25942 21-277): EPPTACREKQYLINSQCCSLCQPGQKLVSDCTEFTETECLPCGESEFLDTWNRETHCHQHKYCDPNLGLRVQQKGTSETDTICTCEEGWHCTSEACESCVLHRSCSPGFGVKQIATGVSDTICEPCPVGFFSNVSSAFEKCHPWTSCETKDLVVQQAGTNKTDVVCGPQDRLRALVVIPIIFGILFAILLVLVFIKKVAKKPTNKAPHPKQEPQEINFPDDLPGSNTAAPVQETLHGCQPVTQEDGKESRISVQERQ

| Binder | EC50 (人CD40 [1]) [µg/mL] | EC50 (人CD40 [2]) [µg/mL] | binding result (mCD40-his(小鼠CD40)) |
| --- | --- | --- | --- |
| B1 | 0.593 | 0.414 | no binding |
| B2 | 0.995 | 0.86 |  |
